Test results reported in patent publication US20250277045A1.

Target: human BCMA recombinant antigen (human) (UniProt Q02223)
Test: competition ELISA, coated human BCMA, antibody varied, then biotinylated human APRIL at 240 ng/mL, SA-HRP

human BCMA recombinant antigen (human), sequence (Q02223 1-53): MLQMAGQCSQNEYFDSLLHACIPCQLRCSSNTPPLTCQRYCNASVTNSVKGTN

IC50 (read off the curve): 3 nM
Substance: REGN5458 (bispecific antibody)
